# Experimental data from patent US20130336947, “PEPTIDES AND USES” (FUNDACIÓ PRIVADA CENTRE DE REGULACIÓ GENÓMICA, published 2013).
# B1: (GCA)x6 probe (dsDNA)
# DNA 1: GCAGCAGCAGCAGCAGCA
# DNA 2: TGCTGCTGCTGCTGCTGC
# B2: (GCA-GCT)x3 alternate probe (dsDNA)
# DNA 1: GCAGCTGCAGCTGCAGCT
# DNA 2: AGCTGCAGCTGCAGCTGC
# B3: (CAG)x7 probe (dsDNA)
# DNA 1: CAGCAGCAGCAGCAGCAGCAG
# DNA 2: CTGCTGCTGCTGCTGCTGCTG
# What was measured:
# Conditions in all cases: tags: N-terminal NLS PKKKRKV; TNT T7 expression from PCR product; label: DIG
# [1] = target: ZF6xHunt (Artificial); assay: EMSA; binds equally to (GCA-GCT)x3
# ZF6xHunt (Artificial), sequence (chain, as listed by the source): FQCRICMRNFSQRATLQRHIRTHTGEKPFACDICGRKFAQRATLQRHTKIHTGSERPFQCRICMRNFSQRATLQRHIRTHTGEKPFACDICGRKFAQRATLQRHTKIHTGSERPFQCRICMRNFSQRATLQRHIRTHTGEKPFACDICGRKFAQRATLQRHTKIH
# [2] = target: ZF6xHunt (Artificial); assay: EMSA; binds equally to (GCA)x6
# [3] = target: ZF6xHunt (Artificial); assay: EMSA; specific versus mutated sequences
binder,measurement,setting,value
B1,binding result,[1],binds
B2,binding result,[2],binds
B3,binding result,[3],binds
